# From patent US20230295597
# Residue numbers refer to the chain shown, from its start.
# T1: trADAMTS-13^R312A (truncated ADAMTS-13 mutant, Arg312 to Ala)
# T1 chain: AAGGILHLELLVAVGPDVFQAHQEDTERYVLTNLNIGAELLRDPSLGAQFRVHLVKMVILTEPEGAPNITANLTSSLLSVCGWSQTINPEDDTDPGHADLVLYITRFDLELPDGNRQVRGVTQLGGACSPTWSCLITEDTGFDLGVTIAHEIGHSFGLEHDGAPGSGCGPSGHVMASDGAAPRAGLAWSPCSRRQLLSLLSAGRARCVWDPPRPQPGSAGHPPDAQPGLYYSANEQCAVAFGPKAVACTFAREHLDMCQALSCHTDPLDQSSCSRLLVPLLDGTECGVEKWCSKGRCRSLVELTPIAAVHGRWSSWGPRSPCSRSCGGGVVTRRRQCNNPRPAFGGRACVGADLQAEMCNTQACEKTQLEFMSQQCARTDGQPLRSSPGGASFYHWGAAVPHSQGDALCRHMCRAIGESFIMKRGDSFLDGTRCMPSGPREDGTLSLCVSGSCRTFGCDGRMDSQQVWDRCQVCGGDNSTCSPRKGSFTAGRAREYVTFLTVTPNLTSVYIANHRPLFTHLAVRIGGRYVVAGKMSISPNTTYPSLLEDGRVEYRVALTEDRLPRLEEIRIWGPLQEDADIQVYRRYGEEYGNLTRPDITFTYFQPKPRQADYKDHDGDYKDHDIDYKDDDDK
# T2: truncated recombinant human ADAMTS-13 variant (MDTCS), trADAMTS-13 WT
# T2 chain: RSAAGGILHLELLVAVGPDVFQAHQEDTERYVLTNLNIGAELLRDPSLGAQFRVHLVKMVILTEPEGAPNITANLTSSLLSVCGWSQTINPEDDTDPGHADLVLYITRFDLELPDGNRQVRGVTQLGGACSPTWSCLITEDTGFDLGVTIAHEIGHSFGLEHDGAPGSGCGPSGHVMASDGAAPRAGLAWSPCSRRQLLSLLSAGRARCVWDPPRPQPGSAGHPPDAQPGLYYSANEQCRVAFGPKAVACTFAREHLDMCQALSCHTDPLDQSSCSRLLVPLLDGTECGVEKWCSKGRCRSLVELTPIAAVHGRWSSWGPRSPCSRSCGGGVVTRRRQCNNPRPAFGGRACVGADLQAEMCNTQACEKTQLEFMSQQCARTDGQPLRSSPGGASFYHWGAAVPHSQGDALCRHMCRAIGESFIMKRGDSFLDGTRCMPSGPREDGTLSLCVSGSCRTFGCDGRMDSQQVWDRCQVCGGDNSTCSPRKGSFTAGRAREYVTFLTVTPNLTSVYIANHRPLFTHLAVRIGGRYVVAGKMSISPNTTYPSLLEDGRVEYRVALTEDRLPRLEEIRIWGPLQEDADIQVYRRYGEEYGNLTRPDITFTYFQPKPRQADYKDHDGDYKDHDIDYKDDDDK
# T3: trADAMTS-13^V313D (truncated ADAMTS-13 mutant, Val313 to Asp)
# T3 chain: T1 chain with A238R, V239D
# B1: tissue plasminogen activator (tPA) (protein)
# chain: SYQVICRDEKTQMIYQQHQSWLRPVLRSNRVEYCWCNSGRAQCHSVPVKSCSEPRCFNGGTCQQALYFSDFVCQCPEGFAGKCCEIGNSDCYFGNGSAYRGTHSLTESGASCLPWNSMILIGKVYTAQNPSAQALGLGKHNYCRNPDGDAKPWCHVLKNRRLTWEYCDVPSCSTCGLRQYSQPQFRIKGGLFADIASHPWQAAIFAKHRRSPGERFLCGGILISSCWILSAAHCFQERFPPHHLTVILGRTYRVVPGEEEQKFEVEKYIVHKEFDDDTYDNDIALLQLKSDSSRCAQESSVVRTVCLPPADLQLPDWTECELSGYGKHEALSPFYSERLKEAHVRLYPSSRCTSQHLLNRTVTDNMLCAGDTRSGGPQANLHDACQGDSGGPLVCLNDGRMTLVGIISWGLGCGQKDVPGVYTKVTNYLDWIRDNMRP
# Key:
# [1] = target: T1, trADAMTS-13^R312A (truncated ADAMTS-13 …)
# [2] = target: T2, truncated recombinant human ADAMTS-13 …
# [3] = target: T3, trADAMTS-13^V313D (truncated ADAMTS-13 …)
protein,measurement,setting,value
B1,residual proteolytic activity on vWF after 6 hours with or without tPA,[1],tPA inhibited the proteolytic activity of trADAMTS-13^R312A and trADAMTS-13^V313A variants on vWF (FIG. 8)
same,ADAMTS-13 activity with or without preincubation with tPA (technozym kit),[2],the activity of both trADAMTS-13 and ADAMTS-13 WT was reduced in the presence of tPA (FIG. 4B)
same,"activity of trADAMTS-13 WT after 4 hr in soluble fibrin (2 uM) or PBS, without or with tPA (100 nM)",[2],The addition of soluble fibrin reversed the tPA-mediated reduction in ADAMTS-13 activity (FIG. 14A)
same,cleavage by tPA (Western blot) and residual proteolytic activity on vWF over time,[2],trADAMTS-13 was proteolyzed completely (FIG. 7A) and lost its catalytic activity (FIG. 7B)
same,"cleavage of trADAMTS-13 (500 nM) by tPA (100 nM), Western blot",[2],"in the presence of tPA, it is cleaved (FIG. 4C)"
same,residual proteolytic activity on vWF after 6 hours with or without tPA,[3],trADAMTS-13^R312K and trADAMTS-13^V313D variants were resistant to inactivation by tPA
